Assay results taken from US9567399 (dated 2017).
Values belong to the binder of their own block, whether it stands above or below them.

How the values were obtained:
[1] = target: cyno PD-L1 FLAG (cynomolgus); assay: SPR, 37C
[2] = target: human PD-L1 His (human); assay: SPR, 37C
[3] = target: human PD-L1 His (human); assay: ELISA, competition with PD-1
[4] = target: human PD-L1 His (human); assay: SPR, 25C
[5] = target: human PD-L1 His (human); assay: SPR, 25C; remark: listed apart in the source
[6] = target: human PD-L1 His (human); assay: ELISA, competition with CD80
[7] = target: T1, TIGIT (human, UniProt Q495A1); assay: SPR
T1 chain: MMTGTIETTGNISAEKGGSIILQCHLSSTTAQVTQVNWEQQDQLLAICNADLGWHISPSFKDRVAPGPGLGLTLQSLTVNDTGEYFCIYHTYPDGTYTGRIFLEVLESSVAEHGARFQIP

[8] = target: human PD-L1 His (human); assay: SPR
[9] = target: human PD-L1 His (human); assay: ELISA, competition with PD-1; remark: listed apart in the source

Chain of cyno PD-L1 FLAG (cynomolgus) (chain, as listed by the source): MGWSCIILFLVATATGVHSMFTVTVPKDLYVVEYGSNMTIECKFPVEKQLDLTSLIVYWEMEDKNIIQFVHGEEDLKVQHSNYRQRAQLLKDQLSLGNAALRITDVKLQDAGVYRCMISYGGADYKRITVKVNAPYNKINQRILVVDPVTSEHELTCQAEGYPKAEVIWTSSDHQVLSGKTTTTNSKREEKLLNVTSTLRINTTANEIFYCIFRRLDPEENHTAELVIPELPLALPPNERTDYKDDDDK

B2: 1D05 VH V to A (antibody, V domains shown)
VH: EVQLVESGGGLVQPGRSLRLSCAASGFTFDDYAMHWVRQAPGKGLEWVSGISWIRTGIGYADSVKGRFTIFRDNAKNSLYLQMNSLRAEDTALYYCAKDMKGSGTYGGWFDTWGQGTLVTVSS
VL: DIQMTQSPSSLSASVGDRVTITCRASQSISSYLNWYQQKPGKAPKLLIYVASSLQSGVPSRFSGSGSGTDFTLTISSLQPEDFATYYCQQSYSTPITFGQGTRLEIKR
- Kd [4]: 330 pM

B3: 1D05 D9-7 (antibody)
chain 1: EVQLVESGGGLVQPGRSLRLSCAASGFTFDDYAMHWVRQVPGKGLEWVSGISWIRTGIGYADSVKGRFTIFRDNAKNSLYLQMNSLRAEDTALYYCAKDMKGSGTYGGWFDTWGQGTLVTVSS
chain 2: not shown
- Kd [5]: 200 pM
- IC50 [6]: 700 pM

B4: 1D05 VH F to S (antibody, V domains shown)
VH: EVQLVESGGGLVQPGRSLRLSCAASGFTFDDYAMHWVRQVPGKGLEWVSGISWIRTGIGYADSVKGRFTISRDNAKNSLYLQMNSLRAEDTALYYCAKDMKGSGTYGGWFDTWGQGTLVTVSS
VL: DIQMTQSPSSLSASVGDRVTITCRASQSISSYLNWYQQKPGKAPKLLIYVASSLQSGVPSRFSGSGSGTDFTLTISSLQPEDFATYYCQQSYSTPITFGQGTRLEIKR
- Kd [4]: 230 pM

B7: 1D05 IC64 (D5-7) (antibody)
chain 1: EVQLVESGGGLVQPGRSLRLSCAASGFTFDDYAMHWVRQVPGKGLEWVSGISWIRTGIGYADSVKGRFTIFRDNAKNSLYLQMNSLRAEDTALYYCAKDMKGSGTYGGWFDTWGQGTLVTVSS
chain 2: not shown
- Kd [5]: 214 pM

B8: 1D05 IC45 (D5-9) (antibody)
chain 1: EVQLVESGGGLVQPGRSLRLSCAASGFTFDDYAMHWVRQVPGKGLEWVSGISWIRTGIGYADSVKGRFTIFRDNAKNSLYLQMNSLRAEDTALYYCAKDMKGSGTYGGWFDTWGQGTLVTVSS
chain 2: not shown
- Kd [5]: 203 pM

B10: 1D05 IC46 (D1-9) (antibody)
chain 1: EVQLVESGGGLVQPGRSLRLSCAASGFTFDDYAMHWVRQVPGKGLEWVSGISWIRTGIGYADSVKGRFTIFRDNAKNSLYLQMNSLRAEDTALYYCAKDMKGSGTYGGWFDTWGQGTLVTVSS
chain 2: not shown
- Kd [5]: 195 pM
- IC50 [9]: 1750 pM
- IC50 [6]: 1070 pM

More lines, now with the values ahead:

- Kd [1]: 520 pM
- Kd [2]: 430 pM
- IC50 [3]: 7900 pM
B1: 84G09 (antibody, V domains shown)
VH: EVQLVESGGGLVQPGRSLRLSCAASGFTFDDYAMHWVRQTPGKGLEWVSGISWKSNIIGYADSVKGRFTISRDNAKNSLYLQMNSLRAEDTALYYCARDITGSGSYGWFDPWGQGTLVTVSS
VL: DIQMTQSPSSLSASVGDRVTITCRASQSISSYLNWYQQKPGKAPKPLIYVASSLQSGVPSSFSGSGSGTDFTLTISSLQPEDFATYYCQQSYSNPITFGQGTRLEIK

- Kd [4]: 2800 pM
B5: 1D05 VH V to A, VL V to A (antibody, V domains shown)
VH: EVQLVESGGGLVQPGRSLRLSCAASGFTFDDYAMHWVRQAPGKGLEWVSGISWIRTGIGYADSVKGRFTIFRDNAKNSLYLQMNSLRAEDTALYYCAKDMKGSGTYGGWFDTWGQGTLVTVSS
VL: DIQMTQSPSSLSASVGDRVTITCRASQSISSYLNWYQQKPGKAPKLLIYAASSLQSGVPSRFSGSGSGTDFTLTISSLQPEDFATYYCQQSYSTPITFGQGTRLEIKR

- binding result [7]: no binding
- Kd [8]: 350 pM
- Kd [1]: 430 pM
- Kd [2]: 420 pM
B6: 1D05 (antibody)
chain 1: EVQLVESGGGLVQPGRSLRLSCAASGFTFDDYAMHWVRQVPGKGLEWVSGISWIRTGIGYADSVKGRFTIFRDNAKNSLYLQMNSLRAEDTALYYCAKDMKGSGTYGGWFDTWGQGTLVTVSS
chain 2: not shown

- Kd [4]: 230 pM
B9: 1D05 VH V to A and F to S (antibody, V domains shown)
VH: EVQLVESGGGLVQPGRSLRLSCAASGFTFDDYAMHWVRQAPGKGLEWVSGISWIRTGIGYADSVKGRFTISRDNAKNSLYLQMNSLRAEDTALYYCAKDMKGSGTYGGWFDTWGQGTLVTVSS
VL: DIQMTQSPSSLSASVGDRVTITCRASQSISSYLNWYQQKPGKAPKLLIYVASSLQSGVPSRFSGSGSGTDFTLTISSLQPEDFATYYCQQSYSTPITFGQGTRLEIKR

- Kd [8]: 210 pM
B11: Bispecific 2, PD-L1 arm (antibody)
chain 1: EVQLVESGGGLVQPGRSLRLSCAASGFTFDDYAMHWVRQVPGKGLEWVSGISWIRTGIGYADSVKGRFTIFRDNAKNSLYLQMNSLRAEDTALYYCAKDMKGSGTYGGWFDTWGQGTLVTVSS
chain 2: not shown

- Kd [8]: 270 pM
B12: Bispecific 1, PD-L1 arm (antibody)
chain 1: EVQLVESGGGLVQPGRSLRLSCAASGFTFDDYAMHWVRQVPGKGLEWVSGISWIRTGIGYADSVKGRFTIFRDNAKNSLYLQMNSLRAEDTALYYCAKDMKGSGTYGGWFDTWGQGTLVTVSS
chain 2: not shown
